Source: paper PMC5161713

Tests used:
[1] = target: wild-type CfaB, mature form, with N-terminal hexahistidine tag (^wtCfaB, (his)6CfaB) (enterotoxigenic Escherichia coli (ETEC)) (UniProt E3PPC4)
[2] = target: wild-type CfaB, mature form, with N-terminal hexahistidine tag (^wtCfaB, (his)6CfaB) (enterotoxigenic Escherichia coli (ETEC)) (UniProt E3PPC4); experiment: pull-down

Substance: wild-type CfaA with C-terminal Strep-tag (^wtCfaA, CfaA(Strep)) (natural protein)
- kf, fast-phase rate constant of chaperone-assisted refolding of denatured CfaB [1]: 0.54 s⁻¹
- ratio between CfaA and CfaB (densitometry of the pull-down) [2]: 0.6
